# Measured values reported in paper PMC6323126.
# B1: FHA domain (residues 5–135) of SLMAP [human] / MST2 kinase domain (residues 1–308) [human] (parent)
# chain 1: LAIFTCRPNSHPFQERHVYLDEPIKIGRSVARCRPAQNNATFDCKVLSRNHALVWFDHKTGKFYLQDTKSSNGTFINSQRLSRGSEESPPCEILSGDIIQFGVDVTENTRKVTHGCIVSTIKLFLPDGMEA
# chain 2: MEQPPAPKSKLKKLSEDSLTKQPEEVFDVLEKLGEGSYGSVFKAIHKESGQVVAIKQVPVESDLQEIIKEISIMQQCDSPYVVKYYGSYFKNTDLWIVMEYCGAGSVSDIIRLRNKTLIEDEIATILKSTLKGLEYLHFMRKIHRDIKAGNILLNTEGHAKLADFGVAGQLTDTMAKRNTVIGTPFWMAPEVIQEIGYNCVADIWSLGITSIEMAEGKPPYADIHPMRAIFMIPTNPPPTFRKPELWSDDFTDFVKKCLVKNPEQRATATQLLQHPFIKNAKPVSILRDLITEAMEIKAKRHEEQQRE
# Variants of: B1
# Test: BLI
# Details: with MST2 kinase domain (residues 1–308) [human]; read at the end of association (about 360 s); parent: 2.1; read off a plot
row,response,Variant
1,0.57 nm,chain 1 R49A
